Molecular target: beef heart phosphodiesterase (Boeringer Mannheim) (beef)

Question: calmodulin was tested. Which phosphodiesterase activity did it give?
Answer: 6.5 fold

— patent publication US20060199247A1
